Assays:
[1] = test system: wt NP, recombinant (filter binding) (Influenza A virus (A/WSN/33, H1N1)); experiment: filter binding; details: running buffer with 300 mM NaCl and 0.025% P20, 25 C, conditions not given
[2] = test system: NP isolated from virus (Influenza A virus (strain for filter assay not stated; A/PR/8/34 used for MS)); experiment: filter binding; details: running buffer with 300 mM NaCl and 0.025% P20, 25 C, conditions not given
[3] = target: wild type nucleoprotein of influenza A virus H1N1 strain A/WSN/33 (influenza A virus H1N1 strain A/WSN/33); experiment: crystal structure

Substance | Kd [1] | Kd [2] | stoichiometry N [3]
81 nt panhandle RNA | 30 nM | 30 nM | –
wild type nucleoprotein of influenza A virus H1N1 strain A/WSN/33 (natural protein) | – | – | 3

From article PMC3610751
